Target: T1, extracellular domain (ECD) of human TrkA protein, N-terminal flag tag and C-terminal His tag (PHA) (human, UniProt P04629 33-423)
T1 construct: Made in 293-F cells and purified by IMAC; also called TrkA ECD protein; TrkA (ECD); not shown: flag tag at the N-terminus (after the signal peptide); His tag at the C-terminus
Experiment: BLI (ForteBio)

T1 sequence (P04629 33-423): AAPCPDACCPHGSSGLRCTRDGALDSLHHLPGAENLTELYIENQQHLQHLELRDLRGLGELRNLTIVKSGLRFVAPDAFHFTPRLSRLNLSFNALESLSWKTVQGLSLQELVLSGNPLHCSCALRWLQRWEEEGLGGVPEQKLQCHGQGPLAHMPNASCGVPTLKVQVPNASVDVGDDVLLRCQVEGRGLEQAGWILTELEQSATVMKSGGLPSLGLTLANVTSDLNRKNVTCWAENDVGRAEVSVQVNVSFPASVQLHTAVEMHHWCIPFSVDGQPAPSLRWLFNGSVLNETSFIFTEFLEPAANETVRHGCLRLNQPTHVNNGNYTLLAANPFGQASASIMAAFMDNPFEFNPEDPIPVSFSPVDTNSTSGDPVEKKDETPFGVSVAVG

B1: PHD29 (antibody, V domains shown)
VH: QVQLVQSGAEVKKPGASVKVSCKASGYTFTTYWMHWVRQAPGQGLEWIGTIYPGNSDTSFAQKFQGRVTLTRDTSTSTAYMELSSLRSEDTAVYYCTRFYFEDWYFDVWGQGTTVTVSS
VL: DIQMTQSPSSLSASVGDRVTITCRASSSISWLYWFQQKPGKAPKPLIYYTSSLGSGVPSRFSGSGSGTDYTLTISSLQPEDFATYYCQQWHSYPPTFGGGTKVEIK
B1 was tested, and the Kd was 0.0119 µM, the koff was 0.00441 s⁻¹ and the kon was 371000 M⁻¹ s⁻¹.

B2: PHD26 (antibody, V domains shown)
VH: QVQLVQSGAEVKKPGASVKVSCKASGYTFTEYWMHWVRQAPGQGLEWIGTIYPGNSDTSYAQKFQGRVTLTRDTSTSTAYMELSSLRSEDTAVYYCTRFYFEDWYFDVWGQGTTVTVSS
VL: DIQMTQSPSSLSASVGDRVTITCRASSSISWLYWFQQKPGKAPKPLIYYTSSLGSGVPSRFSGSGSGTDYTLTISSLQPEDFATYYCQQWHSYPPTFGGGTKVEIK
For B2, the Kd was 0.0166 µM, the koff was 0.00811 s⁻¹ and the kon was 490000 M⁻¹ s⁻¹.

B3: PHD24 (antibody, V domains shown)
VH: QVQLVQSGAEVKKPGASVKVSCKASGYTFTTYWMHWVRQAPGQGLEWIGTIYPGNSDTSLAQKFQGRVTLTRDTSTSTAYMELSSLRSEDTAVYYCTRFYFEDWYFDVWGQGTTVTVSS
VL: DIQMTQSPSSLSASVGDRVTITCRASSSISWLYWFQQKPGKAPKPLIYYTSTLGSGVPSRFSGSGSGTDYTLTISSLQPEDFATYYCQQWHSYPPTFGGGTKVEIK
In the case of B3, the Kd is reported as 0.0116 µM, the koff is reported as 0.00518 s⁻¹ and the kon is reported as 446000 M⁻¹ s⁻¹.

B4: PHD25 (antibody, V domains shown)
VH: QVQLVQSGAEVKKPGASVKVSCKASGYTFTTYWMHWVRQAPGQGLEWIGTIYPGNSDTSFAQKFQGRVTLTRDTSTSTAYMELSSLRSEDTAVYYCTRFYFEDWYFDVWGQGTTVTVSS
VL: DIQMTQSPSSLSASVGDRVTITCRASSSISWLYWFQQKPGKAPKPLIYYTSTLGSGVPSRFSGSGSGTDYTLTISSLQPEDFATYYCQQWHSYPPTFGGGTKVEIK
B4 showed a Kd of 0.0123 µM, a koff of 0.00471 s⁻¹ and a kon of 383000 M⁻¹ s⁻¹.

B5: PHD28 (antibody, V domains shown)
VH: QVQLVQSGAEVKKPGASVKVSCKASGYTFTTYWMHWVRQAPGQGLEWIGTIYPGNSDTSLAQKFQGRVTLTRDTSTSTAYMELSSLRSEDTAVYYCTRFYFEDWYFDVWGQGTTVTVSS
VL: DIQMTQSPSSLSASVGDRVTITCRASSSISWLYWFQQKPGKAPKPLIYYTSSLGSGVPSRFSGSGSGTDYTLTISSLQPEDFATYYCQQWHSYPPTFGGGTKVEIK
Work on B5 yielded a Kd of 0.0184 µM, a koff of 0.00764 s⁻¹ and a kon of 415000 M⁻¹ s⁻¹.

B6: PHD30 (antibody, V domains shown)
VH: QVQLVQSGAEVKKPGASVKVSCKASGYTFTEYWMHWVRQAPGQGLEWIGTIYPGNSDSSFAQKFQGRVTLTRDTSTSTAYMELSSLRSEDTAVYYCTRFYYEDWYFDVWGQGTTVTVSS
VL: DIQMTQSPSSLSASVGDRVTITCRASSSISYLYWFQQKPGKAPKPLIYRTSSLGSGVPSRFSGSGSGTDYTLTISSLQPEDFATYYCQQYHSYPPTFGGGTKVEIK
For B6, the Kd was 0.00723 µM, the koff was 0.00351 s⁻¹ and the kon was 486000 M⁻¹ s⁻¹.

B7: PHD22 (antibody, V domains shown)
VH: QVQLVQSGAEVKKPGASVKVSCKASGYTFTEYWMHWVRQAPGQGLEWIGTIYPGNSDTSYAQKFQGRVTLTRDTSTSTAYMELSSLRSEDTAVYYCTRFYFEDWYFDVWGQGTTVTVSS
VL: DIQMTQSPSSLSASVGDRVTITCRASSSISWLYWFQQKPGKAPKPLIYYTSTLGSGVPSRFSGSGSGTDYTLTISSLQPEDFATYYCQQWHSYPPTFGGGTKVEIK
With B7 the Kd was 0.0238 µM, the koff was 0.0113 s⁻¹ and the kon was 473000 M⁻¹ s⁻¹.

From patent US20240002516A1 (4B TECHNOLOGIES SUZHOU, published 2024)
